Assay [1] addresses vasopressin type 2 receptor (UniProt P30518).
For assay [2], the target named is chimeric V2R harboring the carboxy-terminal tail of the β2-adrenergic receptor.
Assay [3] deals with vasopressin type 2 receptor (UniProt P30518). The source holds these as a separate data set.

In the case of mini G protein mGs, in assay [1], the AVP-mediated maximal efficacy of Rluc-mGs recruitment to early endosomes (EbBRET with rGFP-Rab5), AVP dose-response, 45 min, cells expressing V2R is 0.167 ΔEbBRET; the AVP-mediated maximal efficacy of Rluc-mGs recruitment to the plasma membrane (EbBRET with rGFP-CAAX), AVP dose-response, 10 min, cells expressing V2R is 0.3 ΔEbBRET; the Potency of AVP (logEC50) for Rluc-mGs recruitment to early endosomes (EbBRET with rGFP-Rab5), 45 min, cells expressing V2R was -8.65 logEC50; the Potency of AVP (logEC50) for Rluc-mGs recruitment to the plasma membrane (EbBRET with rGFP-CAAX), 10 min, cells expressing V2R is -8.07 logEC50. Besides, in assay [1], the Transduction coefficient log(τ/Ka) of Rluc-mGs recruitment to early endosomes (EbBRET with rGFP-Rab5), cells expressing V2R is 8.63 log(τ/Ka) and the Transduction coefficient log(τ/Ka) of Rluc-mGs recruitment to the plasma membrane (EbBRET with rGFP-CAAX), cells expressing V2R was 7.98 log(τ/Ka). For the same substance, in assay [2], the AVP-mediated maximal efficacy of Rluc-mGs recruitment to early endosomes (EbBRET with rGFP-Rab5), AVP dose-response, 45 min, cells expressing V2β2AR was 0.15 ΔEbBRET; the AVP-mediated maximal efficacy of Rluc-mGs recruitment to the plasma membrane (EbBRET with rGFP-CAAX), AVP dose-response, 10 min, cells expressing V2β2AR is 0.392 ΔEbBRET; the Potency of AVP (logEC50) for Rluc-mGs recruitment to early endosomes (EbBRET with rGFP-Rab5), 45 min, cells expressing V2β2AR is -8.34 logEC50; the Potency of AVP (logEC50) for Rluc-mGs recruitment to the plasma membrane (EbBRET with rGFP-CAAX), 10 min, cells expressing V2β2AR is -8.07 logEC50. In assay [2], the Transduction coefficient log(τ/Ka) of Rluc-mGs recruitment to early endosomes (EbBRET with rGFP-Rab5), cells expressing V2β2AR is 8.31 log(τ/Ka) and the Transduction coefficient log(τ/Ka) of Rluc-mGs recruitment to the plasma membrane (EbBRET with rGFP-CAAX), cells expressing V2β2AR is 8.04 log(τ/Ka). In assay [3], the AVP-induced maximal efficacy of Rluc-mGs recruitment to early endosomes (EbBRET with rGFP-Rab5), AVP dose-response, 45 min, parental HEK293 cells was 0.18 ΔEbBRET; the AVP-induced maximal efficacy of Rluc-mGs recruitment to early endosomes (EbBRET with rGFP-Rab5), AVP dose-response, 45 min, Δβarr1/2 HEK293 cells was 0.074 ΔEbBRET; the AVP-induced maximal efficacy of Rluc-mGs recruitment to the plasma membrane (EbBRET with rGFP-CAAX), AVP dose-response, 10 min, parental HEK293 cells is 0.324 ΔEbBRET; the AVP-induced maximal efficacy of Rluc-mGs recruitment to the plasma membrane (EbBRET with rGFP-CAAX), AVP dose-response, 10 min, Δβarr1/2 HEK293 cells is 0.376 ΔEbBRET. Further, in assay [3], the Potency of AVP (LogEC50) for Rluc-mGs recruitment to early endosomes (EbBRET with rGFP-Rab5), 45 min, parental HEK293 cells was -8.37 LogEC50; the Potency of AVP (LogEC50) for Rluc-mGs recruitment to early endosomes (EbBRET with rGFP-Rab5), 45 min, Δβarr1/2 HEK293 cells was -8.34 LogEC50; the Potency of AVP (LogEC50) for Rluc-mGs recruitment to the plasma membrane (EbBRET with rGFP-CAAX), 10 min, parental HEK293 cells was -7.9 LogEC50; the Potency of AVP (LogEC50) for Rluc-mGs recruitment to the plasma membrane (EbBRET with rGFP-CAAX), 10 min, Δβarr1/2 HEK293 cells is -7.99 LogEC50.

As for mini G protein mGsq, in assay [1], the AVP-mediated maximal efficacy of Rluc-mGsq recruitment to early endosomes (EbBRET with rGFP-Rab5), AVP dose-response, 45 min, cells expressing V2R is 0.05 ΔEbBRET; the AVP-mediated maximal efficacy of Rluc-mGsq recruitment to the plasma membrane (EbBRET with rGFP-CAAX), AVP dose-response, 10 min, cells expressing V2R is 0.161 ΔEbBRET; the Potency of AVP (logEC50) for Rluc-mGsq recruitment to early endosomes (EbBRET with rGFP-Rab5), 45 min, cells expressing V2R was -8.44 logEC50; the Potency of AVP (logEC50) for Rluc-mGsq recruitment to the plasma membrane (EbBRET with rGFP-CAAX), 10 min, cells expressing V2R is -7.88 logEC50. Further, in assay [1], the Transduction coefficient log(τ/Ka) of Rluc-mGsq recruitment to early endosomes (EbBRET with rGFP-Rab5), cells expressing V2R is 8.31 log(τ/Ka) and the Transduction coefficient log(τ/Ka) of Rluc-mGsq recruitment to the plasma membrane (EbBRET with rGFP-CAAX), cells expressing V2R was 7.9 log(τ/Ka). In assay [2], the AVP-mediated maximal efficacy of Rluc-mGsq recruitment to early endosomes (EbBRET with rGFP-Rab5), AVP dose-response, 45 min, cells expressing V2β2AR was 0.061 ΔEbBRET; the AVP-mediated maximal efficacy of Rluc-mGsq recruitment to the plasma membrane (EbBRET with rGFP-CAAX), AVP dose-response, 10 min, cells expressing V2β2AR is 0.183 ΔEbBRET; the Potency of AVP (logEC50) for Rluc-mGsq recruitment to early endosomes (EbBRET with rGFP-Rab5), 45 min, cells expressing V2β2AR was -7.82 logEC50; the Potency of AVP (logEC50) for Rluc-mGsq recruitment to the plasma membrane (EbBRET with rGFP-CAAX), 10 min, cells expressing V2β2AR was -7.97 logEC50. In addition, in assay [2], the Transduction coefficient log(τ/Ka) of Rluc-mGsq recruitment to early endosomes (EbBRET with rGFP-Rab5), cells expressing V2β2AR is 7.91 log(τ/Ka) and the Transduction coefficient log(τ/Ka) of Rluc-mGsq recruitment to the plasma membrane (EbBRET with rGFP-CAAX), cells expressing V2β2AR was 7.99 log(τ/Ka). Further, in assay [3], the AVP-induced maximal efficacy of Rluc-mGsq recruitment to early endosomes (EbBRET with rGFP-Rab5), AVP dose-response, 45 min, parental HEK293 cells is 0.05 ΔEbBRET; the AVP-induced maximal efficacy of Rluc-mGsq recruitment to early endosomes (EbBRET with rGFP-Rab5), AVP dose-response, 45 min, Δβarr1/2 HEK293 cells is 0.024 ΔEbBRET; the AVP-induced maximal efficacy of Rluc-mGsq recruitment to the plasma membrane (EbBRET with rGFP-CAAX), AVP dose-response, 10 min, parental HEK293 cells is 0.168 ΔEbBRET; the AVP-induced maximal efficacy of Rluc-mGsq recruitment to the plasma membrane (EbBRET with rGFP-CAAX), AVP dose-response, 10 min, Δβarr1/2 HEK293 cells is 0.18 ΔEbBRET. Moreover, in assay [3], the Potency of AVP (LogEC50) for Rluc-mGsq recruitment to early endosomes (EbBRET with rGFP-Rab5), 45 min, parental HEK293 cells was -8.38 LogEC50; the Potency of AVP (LogEC50) for Rluc-mGsq recruitment to early endosomes (EbBRET with rGFP-Rab5), 45 min, Δβarr1/2 HEK293 cells was -8.32 LogEC50; the Potency of AVP (LogEC50) for Rluc-mGsq recruitment to the plasma membrane (EbBRET with rGFP-CAAX), 10 min, parental HEK293 cells was -7.81 LogEC50; the Potency of AVP (LogEC50) for Rluc-mGsq recruitment to the plasma membrane (EbBRET with rGFP-CAAX), 10 min, Δβarr1/2 HEK293 cells was -7.95 LogEC50.

The record behind these values is paper PMC10586804.
